From PMC8270467, “A MYB4-MAN3-Mannose-MNB1 signaling cascade regulates cadmium tolerance in Arabidopsis”

B1: ProMAN3 P1 probe (dsDNA)
DNA 1: GGTTTACAAATCAACAACCACTGAACTTTT
DNA 2: AAAAGTTCAGTGGTTGTTGATTTGTAAACC
B2: ProMAN3 P2 probe (dsDNA)
DNA 1: AAGATGGGTTTGCTTGGTGAGACCACAAGA
DNA 2: TCTTGTGGTCTCACCAAGCAAACCCATCTT
B3: ProMAN3 P4 probe (dsDNA)
DNA 1: AGTTAGTCAATGAACGGTTTTCAAATAAAG
DNA 2: CTTTATTTGAAAACCGTTCATTGACTAACT
B4: ProMAN3 P3 probe (dsDNA)
DNA 1: CAAATCATATAGTTTGGTGACTGATTTCAA
DNA 2: TTGAAATCAGTCACCAAACTATATGATTTG

target: MYB4-MBP (Arabidopsis thaliana, UniProt Q9SZP1 1-282); assay: EMSA; LightShift Chemiluminescent EMSA Kit (Thermo), manufacturer's protocol; buffer, salt, pH and temperature not stated; settings: protein: recombinant; tags: MBP; label: 3' biotin on sense strand; blunt
Sequence (Q9SZP1 whole entry): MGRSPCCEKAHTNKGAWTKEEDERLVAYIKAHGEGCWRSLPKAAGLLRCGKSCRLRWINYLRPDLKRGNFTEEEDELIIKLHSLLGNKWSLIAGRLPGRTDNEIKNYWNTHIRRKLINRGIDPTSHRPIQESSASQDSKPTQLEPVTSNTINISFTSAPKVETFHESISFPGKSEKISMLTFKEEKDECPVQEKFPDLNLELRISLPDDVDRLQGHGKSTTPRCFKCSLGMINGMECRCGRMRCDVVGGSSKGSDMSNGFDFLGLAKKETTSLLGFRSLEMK

Binding result, binds:
B1, B2, B3, B4
